The source of these data is US7402570.

The target of assay [1] is lexA-p53 (p53 codons 1-73) fusion (human). Description: cell-based or functional assay.
Assay [2] has as its target human p53 protein, full length (human) (UniProt P04637). In words: cell-based or functional assay.

Sequence of human p53 protein, full length (human) (P04637 whole entry): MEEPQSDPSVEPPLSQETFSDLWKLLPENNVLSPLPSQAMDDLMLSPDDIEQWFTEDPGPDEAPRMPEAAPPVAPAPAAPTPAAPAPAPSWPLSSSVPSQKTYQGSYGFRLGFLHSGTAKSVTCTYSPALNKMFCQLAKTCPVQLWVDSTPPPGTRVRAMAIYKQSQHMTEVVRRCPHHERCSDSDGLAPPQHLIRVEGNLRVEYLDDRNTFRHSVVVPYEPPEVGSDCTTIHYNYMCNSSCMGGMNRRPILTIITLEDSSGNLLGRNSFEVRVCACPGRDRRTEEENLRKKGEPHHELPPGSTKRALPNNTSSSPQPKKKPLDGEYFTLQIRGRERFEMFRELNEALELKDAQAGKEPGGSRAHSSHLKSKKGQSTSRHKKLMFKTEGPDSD

The substance human MDM2 protein (hMDM2), full length registered a decrease in lexA-responsive β-galactosidase reporter activity in yeast in assay [1] of 5 fold. The inhibition of p53-mediated transactivation of a p53-responsive β-galactosidase reporter in yeast in assay [2] was 16 fold.
